Results from patent US20250250330A1.
Where “and” joins values, the source holds several entries; their conditions need not be identical. Identical values can stand only once.

Biological target: Recombinant human VEGF165 (Peprotech, Cat #100-20) (human) (UniProt P15692)
Test: ELISA; rhVEGF165 coated, anti-human IgG Fc-HRP detection

Sequence of Recombinant human VEGF165 (Peprotech, Cat #100-20) (human) (P15692 other isoform, or with tags, fused parts or gaps limits assumed): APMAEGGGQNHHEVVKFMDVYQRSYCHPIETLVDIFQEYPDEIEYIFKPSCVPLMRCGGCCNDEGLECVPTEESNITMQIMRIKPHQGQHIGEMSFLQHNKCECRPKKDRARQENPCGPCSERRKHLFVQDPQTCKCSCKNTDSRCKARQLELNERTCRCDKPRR
Sequence of Aflibercept (Fc fusion) (chain): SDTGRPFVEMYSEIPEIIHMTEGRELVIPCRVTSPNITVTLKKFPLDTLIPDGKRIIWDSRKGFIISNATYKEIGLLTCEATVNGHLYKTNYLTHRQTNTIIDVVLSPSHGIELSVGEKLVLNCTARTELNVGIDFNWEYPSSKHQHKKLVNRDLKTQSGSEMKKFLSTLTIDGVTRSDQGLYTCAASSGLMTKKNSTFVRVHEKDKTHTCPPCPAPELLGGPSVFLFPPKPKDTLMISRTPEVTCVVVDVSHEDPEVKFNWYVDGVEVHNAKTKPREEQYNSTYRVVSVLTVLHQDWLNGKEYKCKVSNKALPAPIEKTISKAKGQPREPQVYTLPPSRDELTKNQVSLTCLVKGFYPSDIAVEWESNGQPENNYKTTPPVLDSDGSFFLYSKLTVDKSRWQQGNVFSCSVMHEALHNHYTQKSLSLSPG

Aflibercept (Fc fusion) was tested, and the EC50 was 51.4 pM and 74 pM and 40.2 pM.
